Laboratory results reported in paper PMC4712673.
Read-outs that look alike come from different tables or passages of the source.

Assays:
Test in all cases: EMSA
Cus2p Y48D = biological target: T1, Cus2p Y48D (Saccharomyces cerevisiae, UniProt P53830 1-285, Y48D)
T1 sequence: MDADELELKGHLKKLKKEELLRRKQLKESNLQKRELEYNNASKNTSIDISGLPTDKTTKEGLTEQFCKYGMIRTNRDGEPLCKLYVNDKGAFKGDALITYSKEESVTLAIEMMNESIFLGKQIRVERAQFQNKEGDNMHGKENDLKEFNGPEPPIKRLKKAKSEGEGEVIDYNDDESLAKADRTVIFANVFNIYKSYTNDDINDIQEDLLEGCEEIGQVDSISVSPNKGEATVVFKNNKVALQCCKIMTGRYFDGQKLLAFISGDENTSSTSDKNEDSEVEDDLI

Cus2p WT [1] = biological target: T2, Cus2p WT (Saccharomyces cerevisiae, UniProt P53830 1-285)
T2 sequence: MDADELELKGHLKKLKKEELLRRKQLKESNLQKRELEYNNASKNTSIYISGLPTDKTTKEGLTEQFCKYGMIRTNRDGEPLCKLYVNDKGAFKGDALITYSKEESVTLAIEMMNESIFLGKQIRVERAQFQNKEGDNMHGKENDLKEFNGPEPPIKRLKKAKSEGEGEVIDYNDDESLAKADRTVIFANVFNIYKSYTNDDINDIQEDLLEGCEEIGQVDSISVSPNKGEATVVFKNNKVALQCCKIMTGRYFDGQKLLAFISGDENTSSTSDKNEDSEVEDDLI

Cus2p WT [2] = biological target: T2, Cus2p WT; remark: listed apart in the source
Cus2p WT [3] = biological target: T2, Cus2p WT; remark: listed apart in the source

B1: stem IIc-stabilized U2 core RNA (structured_RNA)
RNA: GUAGUAUCUGUUCUUUUCAAUGUAACAACUGAAAUGACCUCAAUGAGGCUCAUUACCUUUUCAGUUGUUACAAUACACAUUUUUUGG
B1: binds (Cus2p Y48D); binds (Cus2p WT [1]).

B2: G53A U2 core RNA (structured_RNA)
RNA: GUAGUAUCUGUUCUUUUCAAUGUAACAACUGAAAUGACCUCAAUGAGGCUCAUUACCUUUUAAUUUGUUACAAUACACAUUUUUUGG
B2: binds (Cus2p WT [2]).

B3: stem IIa-stabilized U2 core RNA (structured_RNA)
RNA: GUAGUAUCUGUUCUUUGCGGUGUAACAACCGCAAUGACCUCAAUGAGGCUCAUUACCUUUUAAAUACACAUUUUUUGG
B3: binds (Cus2p WT [3]).
